In experiment [1] the target is Bone morphogenetic protein 2 (rhBMP-2) (UniProt P12643). Briefly: SPR (Reichert SR 7000 refractometer). Conditions: pH 7.4; 20°C; 154 mM NaCl plus 6.7 mM phosphates (PBS); HyClone PBS (154 mM NaCl, 1.06 mM KH2PO4, 5.6 mM Na2HPO4) at pH 7.4. The pH 4.5 solvent is the same PBS acidified with d.
The target in experiment [2] is Kerateine (KTN) extract, in solution (analyte). Briefly: SPR (Reichert SR 7000 refractometer). As to conditions: 20°C, no added salt, unbuffered.
In experiment [3] the target is kerateine (reduced hair keratin extract) (Homo sapiens) (UniProt Q15323). As to the kind of experiment: SPR.
Experiment [4] has the same target. As to the kind of experiment: SPR. This is another data set of the same source. On the technique in general: Surface plasmon resonance follows binding to a sensor surface in real time, without labels.
The mark [5] stands for this setting: pH 7, deionized water, water (pH 7).
Where [6] appears, read: pH 12, 10 mM NaOH, 10 mM NaOH (pH 12).

Like-named read-outs stand apart in the source and are kept apart here.

These results are taken from PMC4552821.

The term KD denotes the concentration at which binding is half-saturated. A word on the Kd: it is the constant that tells how readily two partners part at equilibrium.

Sequence of Bone morphogenetic protein 2 (rhBMP-2) (P12643 whole entry): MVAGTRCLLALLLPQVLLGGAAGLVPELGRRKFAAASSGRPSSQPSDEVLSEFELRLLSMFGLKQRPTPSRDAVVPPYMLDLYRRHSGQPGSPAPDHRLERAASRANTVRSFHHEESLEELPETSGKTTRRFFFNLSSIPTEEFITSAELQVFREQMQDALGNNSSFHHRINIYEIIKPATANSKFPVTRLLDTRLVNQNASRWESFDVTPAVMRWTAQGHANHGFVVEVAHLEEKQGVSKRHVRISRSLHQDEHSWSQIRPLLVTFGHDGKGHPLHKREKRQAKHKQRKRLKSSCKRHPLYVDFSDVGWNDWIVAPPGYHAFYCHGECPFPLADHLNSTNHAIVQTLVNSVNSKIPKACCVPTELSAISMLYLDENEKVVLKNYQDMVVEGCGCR

For the substance “Kerateine (KTN) extract, chemisorbed monolayer on gold”, in experiment [1], the KD was determined as 32 µM, the “t1/2 (half-life of the complex)” value was 3.73 min and the “ΔG (dissociation energy)” value is listed as 6.0 kcal/mol. Further, in experiment [2] (setting [5]), the KD was 180 µM, the “t1/2 (half-life of the complex)” value came out at 1.28 min and the “ΔG (dissociation energy)” value came out at 5.0 kcal/mol. In addition, in experiment [2] (setting [6]), the KD was found to be 100 µM, the “t1/2 (half-life of the complex)” value was found to be 1.77 min and the “ΔG (dissociation energy)” value came to 5.4 kcal/mol.
Regarding “kerateine (reduced hair keratin extract), Q15323”, the results for the Kd in experiment [3] and in experiment [4] were 180 µM and 100 µM, respectively.
